# Article PMC6588657 (2018)
# B1: full-length, C-terminal, Flag-tagged human Lnp [human] / Myc-ATL3 [human] (parent complex)
# chain 1: MGGLFSRWRTKPSTVEVLESIDKEIQALEEFREKNQRLQKLWVGRLILYSSVLYLFTCLIVYLWYLPDEFTARLAMTLPFFAFPLIIWSIRTVIIFFFSKRTERNNEALDDLKSQRKKILEEVMEKETYKTAKLILERFDPDSKKAKECEPPSAGAAVTARPGQEIRQRTAAQRNLSPTPASPNQGPPPQVPVSPGPPKDSSAPGGPPERTVTPALSSNVLPRHLGSPATSVPGMGLHPPGPPLARPILPRERGALDRIVEYLVGDGPQNRYALICQQCFSHNGMALKEEFEYIAFRCAYCFFLNPARKTRPQAPRLPEFSFEKRQVVEGSSSVGPLPSGSVLSSDNQFNEESLEHDVLDDNTEQTDDKIPATEQTNQVIEKASDSEEPEEKQETENEEASVIETNSTVPGADSIPDPELSGESLTAE
# chain 2: MLSPQRVAAAASRGADDAMESSKPGPVQVVLVQKDQHSFELDEKALASILLQDHIRDLDVVVVSVAGAFRKGKSFILDFMLRYLYSQKESGHSNWLGDPEEPLTGFSWRGGSDPETTGIQIWSEVFTVEKPGGKKVAVVLMDTQGAFDSQSTVKDCATIFALSTMTSSVQIYNLSQNIQEDDLQQLQLFTEYGRLAMDEIFQKPFQTLMFLVRDWSFPYEYSYGLQGGMAFLDKRLQVKEHQHEEIQNVRNHIHSCFSDVTCFLLPHPGLQVATSPDFDGKLKDIAGEFKEQLQALIPYVLNPSKLMEKEINGSKVTCRGLLEYFKAYIKIYQGEDLPHPKSMLQATAEANNLAAAASAKDIYYNNMEEVCGGEKPYLSPDILEEKHCEFKQLALDHFKKTKKMGGKDFSFRYQQELEEEIKELYENFCKHNGSKNVFSTFRTPAVLFTGIVALYIASGLTGFIGLEVVAQLFNCMVGLLLIALLTWGYIRYSGQYRELGGAIDFGAAYVLEQASSHIGNSTQATVRDAVVGRPSMDKKAQ
# Variants of: B1
# Experiment: co-immunoprecipitation; COS-7 cell lysates containing 1% Triton X-100; anti-Flag antibody-conjugated agarose; band quantification by Image J; parent: 1
row,ratio to parent,Variant
1,0.32,chain 1 I25D
2,0.26,"chain 1 I25D, chain 1 L28D"
3,0.34,chain 1 L28D
